Assay results reported in patent US20200323973A1 (INSTITUTE FOR SYSTEMS BIOLOGY, published 2020).
Bridge positions count the residues as written; N and C are the ends. Ends that are not written are not given here. * marks the point of attachment. Biotin = O=C1N[C@H]2[C@H](CS[C@H]2CCCCC(=O)*)N1

How the values were obtained:
[1] = target: recombinant full-length MrkA protein with an N-terminal 6xHis-SUMO-tag (MyBiosource, MBS1248970) (Klebsiella pneumoniae) (UniProt P12267); experiment: sandwich ELISA 3, 50 nM MrkA; PCC immobilised
[2] = target: recombinant full-length MrkA protein with an N-terminal 6xHis-SUMO-tag (MyBiosource, MBS1248970) (Klebsiella pneumoniae) (UniProt P12267); experiment: ELISA with the PCC immobilised, full-length recombinant MrkA
[3] = target: recombinant full-length MrkA protein with an N-terminal 6xHis-SUMO-tag (MyBiosource, MBS1248970) (Klebsiella pneumoniae) (UniProt P12267); experiment: sandwich ELISA 4, 100 nM MrkA; PCC immobilised
[4] = target: recombinant full-length MrkA protein with an N-terminal 6xHis-SUMO-tag (MyBiosource, MBS1248970) (Klebsiella pneumoniae) (UniProt P12267); experiment: sandwich ELISA 2, 25 nM MrkA; PCC immobilised
[5] = target: recombinant full-length MrkA protein with an N-terminal 6xHis-SUMO-tag (MyBiosource, MBS1248970) (Klebsiella pneumoniae) (UniProt P12267); experiment: sandwich ELISA 6, 25 nM MrkA; PCC immobilised
[6] = target: recombinant full-length MrkA protein with an N-terminal 6xHis-SUMO-tag (MyBiosource, MBS1248970) (Klebsiella pneumoniae) (UniProt P12267); experiment: sandwich ELISA 1, [MrkA] N/A; reference compound, ratio to itself
[7] = target: recombinant full-length MrkA protein with an N-terminal 6xHis-SUMO-tag (MyBiosource, MBS1248970) (Klebsiella pneumoniae) (UniProt P12267); experiment: sandwich ELISA 3, 50 nM MrkA; reference compound, ratio to itself
[8] = target: recombinant full-length MrkA protein with an N-terminal 6xHis-SUMO-tag (MyBiosource, MBS1248970) (Klebsiella pneumoniae) (UniProt P12267); experiment: ELISA with the PCC immobilised, full-length recombinant MrkA (FIG. 3A)
[9] = target: recombinant full-length MrkA protein with an N-terminal 6xHis-SUMO-tag (MyBiosource, MBS1248970) (Klebsiella pneumoniae) (UniProt P12267); experiment: sandwich ELISA 4, 100 nM MrkA; reference compound, ratio to itself
[10] = target: recombinant full-length MrkA protein with an N-terminal 6xHis-SUMO-tag (MyBiosource, MBS1248970) (Klebsiella pneumoniae) (UniProt P12267); experiment: sandwich ELISA 2, 25 nM MrkA; reference compound, ratio to itself
[11] = target: recombinant full-length MrkA protein with an N-terminal 6xHis-SUMO-tag (MyBiosource, MBS1248970) (Klebsiella pneumoniae) (UniProt P12267); experiment: sandwich ELISA 5, 25 nM MrkA; reference compound, ratio to itself
[12] = target: recombinant full-length MrkA protein with an N-terminal 6xHis-SUMO-tag (MyBiosource, MBS1248970) (Klebsiella pneumoniae) (UniProt P12267); experiment: sandwich ELISA 6, 25 nM MrkA; reference compound, ratio to itself
[13] = target: recombinant full-length MrkA protein with an N-terminal 6xHis-SUMO-tag (MyBiosource, MBS1248970) (Klebsiella pneumoniae) (UniProt P12267); experiment: sandwich ELISA: biotinylated PCC on NeutrAvidin plate, His-SUMO-MrkA titrated, anti-His detection (FIG. 3A)
[14] = target: T1, SynEp 1 (SEQ ID NO:38) (Klebsiella pneumoniae, also: one residue replaced by azidolysine, position not given here); experiment: sandwich ELISA: biotinylated SynEp immobilised, cy(LLFFF)-DNP titrated, anti-DNP detection; background biotin-PEG6 subtracted
T1 peptide: {Biotin-peg5}-FFGKVTDVSCTVSV

[15] = target: T2, MrkA on Klebsiella pneumoniae cells (assembled into type 3 fimbriae) (Klebsiella pneumoniae, UniProt P12267 23-202); experiment: flow cytometry on K. pneumoniae BAA 2146, Alexafluor 488 anti-DNP detection
T2 construct: whole, on cells; One molecule is used for all three strains; The strain is named under assay; MrkA oligomerises in the fimbriae and the number of copies is not fixed; also called MrkA-expressing K. pneumoniae cells; wild type KPPR1 (ATCC 43816)
T2 sequence: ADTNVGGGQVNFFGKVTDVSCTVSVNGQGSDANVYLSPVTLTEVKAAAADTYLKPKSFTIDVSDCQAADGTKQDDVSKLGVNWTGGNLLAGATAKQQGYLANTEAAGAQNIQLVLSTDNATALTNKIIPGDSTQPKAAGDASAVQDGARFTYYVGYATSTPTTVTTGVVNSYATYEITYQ

[16] = target: T2, MrkA on Klebsiella pneumoniae cells …; experiment: whole-cell ELISA, biotinylated PCC and SAv-HRP; KPPR1 (FIG. 5B); also two MrkA-expressing strains at 5 µM (FIG. 5C)
[17] = target: T2, MrkA on Klebsiella pneumoniae cells …; experiment: whole-cell ELISA on wild type KPPR1 (ATCC 43816) grown in G-CAA; biotinylated PCC, SAv-HRP
[18] = target: T2, MrkA on Klebsiella pneumoniae cells …; experiment: whole-cell ELISA on two strains of MrkA-expressing K. pneumoniae (FIG. 5C); biotinylated PCC, SAv-HRP

## cy(AAFFF) (SEQ ID NO:14) (peptide)
[1]
  Relative affinity (ratio of ELISA signal to cy(LLFFF)): 0.15

## cy(GVHRL) (SEQ ID NO:57) (peptide)
[2]
  affinity (likely): 1 µM

## cy(TTFFF) (SEQ ID NO:35) (peptide)
[3]
  Relative affinity (ratio of ELISA signal to cy(LLFFF)): 0.04
[2]
  affinity (likely): 1 µM

## cy(YRHLG) (SEQ ID NO:56) (peptide)
[2]
  affinity (likely): 1 µM

## cy(LLAFF) (SEQ ID NO:9) (peptide)
[4]
  Relative affinity (ratio of ELISA signal to cy(LLFFF)): 0.59

## biotinylated cy(LLFFA) (SEQ ID NO:11) (peptide)
[4]
  Relative affinity (ratio of ELISA signal to cy(LLFFF)): 0.04

## cy(LLFAF) (SEQ ID NO:10) (peptide)
[4]
  Relative affinity (ratio of ELISA signal to cy(LLFFF)): 0.1

## cy(HLFFF) (SEQ ID NO:13) (peptide)
[5]
  Relative affinity (ratio of ELISA signal to cy(LLFFF)): 0.81

## cy(ALFFF) (SEQ ID NO:7) (peptide)
[4]
  Relative affinity (ratio of ELISA signal to cy(LLFFF)): 0.53

## cy(DLFFF) (SEQ ID NO:12) (peptide)
[5]
  Relative affinity (ratio of ELISA signal to cy(LLFFF)): 0.21

## cy(LAFFF) (SEQ ID NO:8) (peptide)
[4]
  Relative affinity (ratio of ELISA signal to cy(LLFFF)): 0.26

## biotinylated cy(LLFFF) (SEQ ID NO:5) (peptide)
[6]
  Relative affinity (ratio of ELISA signal to cy(LLFFF)): 1
[7]
  Relative affinity (ratio of ELISA signal to cy(LLFFF)): 1
[8]
  EC50: 230 nM
[9]
  Relative affinity (ratio of ELISA signal to cy(LLFFF)): 1
[10]
  Relative affinity (ratio of ELISA signal to cy(LLFFF)): 1
[11]
  Relative affinity (ratio of ELISA signal to cy(LLFFF)): 1
[12]
  Relative affinity (ratio of ELISA signal to cy(LLFFF)): 1
[13]
  EC50: 50 nM

B1: cy(LLFFF)-DNP (SEQ ID NO:5) (peptide)
peptide: LLFFF-azidolysine
modifications: triazole N-C; not fully specified (N-terminus); printed as cy(LLFFF)-DNP; also: linker peg5 or peg5-peg5 by assay
notes: also called DNP-conjugated cy(LLFFF); lead AR-PCC
[14]
  binding result: no binding (tested: 500 nM)
[15]
  binding result: binds

B2: biotinylated cy(LLFFF) (SEQ ID NO:5) (peptide)
peptide: LLFFF-azidolysine
modifications: triazole N-C; not fully specified (N-terminus); also: biotin-PEG tag by assay: Bio-Peg10-peg10, Bio-peg10 or Bio-peg5
notes: The biotin-PEG tags differ between assays; They are non-peptide, so one molecule is used and the tag is named under assay; also called cy(X-LLFFF-Z)
[16]
  binding result: binds

B3: biotinylated cy(LLFFA) (SEQ ID NO:11) (peptide)
peptide: LLFFA-propargylglycine
modifications: triazole N-C; not fully specified (N-terminus); printed as cy(Z-LLFFA-X); also: biotin-PEG tag: Bio-peg10 or biotin-peg5 (whole-cell ELISA)
notes: also called Compound Number 6; cy(Z-LLFFA-X)
[17]
  binding result: no binding (tested: 5 µM down to 5 nM)

B4: biotinylated dummy ligand cy(HNGPT) (SEQ ID NO:18) (peptide)
peptide: HNGPT
modifications: macrocycle: propargylglycine before and azidolysine after the printed residues, joined by a triazole (cy); N-terminal biotin-peg5 tag
[18]
  binding result: no binding
